According to US20120121533, “NUCLEIC ACID LIGANDS TO LL37” (BIOTEX, INC., published 2012):

Target: T1, LL37 (human cathelicidin peptide LL-37) (Homo sapiens, UniProt P49913 P49913:134-170)
T1 chain: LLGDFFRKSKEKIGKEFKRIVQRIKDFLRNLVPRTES
Test: SPR; biotinylated aptamer immobilised, increasing LL37 added; nonsense DNA on reference channel
Conditions: label: biotin (immobilised on neutravidin SPR chip)
Method: Aptamers were immobilized to the test channel of a neutravidin-coated SPR chip via standard biotin modification. A nonsense DNA was immobilized on the reference channel to identically match the electrostatic conditions of each channel, and then increasing concentrations of target protein LL37 were added such that no regeneration steps are required. The differential response to each dose was extracted and fit to a binding isotherm model to accurately determine Kd.

ACTGGGTCTCACCATCGAAAATCGAAATGACTAAAAGGCC (ssDNA) [SEQ7 (Apta#222)]
Kd: 118 nM
